The record followed here is paper PMC9643438.

One series concerns the target Cys273 (UniProt position 273, KHPWICQRSTV). Description: chemical modification (iodoacetamide alkylation) with mass spectrometry readout. The settings on record: purified, reduced, native CaMKIIdelta; presence of Ca2+/calmodulin not stated.
The next series addresses Cys290 (UniProt position 290, QETVDCLKKFN). The series is described as above. The settings on record: purified, reduced, native CaMKIIdelta; presence of Ca2+/calmodulin not stated.

Regarding “Calcium/calmodulin-dependent protein kinase II delta (CaMKIIdelta), 'Cys273' mutant (Homo sapiens; C7S;C290S;C481S)”, the pKa (usually the pH at which an ionisable group is half protonated) in the series with Cys273 is on record as 7.4. Take “Calcium/calmodulin-dependent protein kinase II delta (CaMKIIdelta), 'Cys290' mutant (Homo sapiens; C7S;C273S;C481S)”: the pKa in the series with Cys290 was found to be 9.7.
